According to patent publication US20190119347A1 (HANMI PHARM, published 2019):
Bridge positions count the residues as written; N and C are the ends. Square brackets hold non-standard residues; d marks the D form. Ends that are not written are not given here. Aib = CC(C)(N)C(=O)O

Biological target: human glucagon receptor (human, UniProt P47871 26-477)
Experiment: cell-based or functional assay

Chain of human glucagon receptor (P47871 26-477): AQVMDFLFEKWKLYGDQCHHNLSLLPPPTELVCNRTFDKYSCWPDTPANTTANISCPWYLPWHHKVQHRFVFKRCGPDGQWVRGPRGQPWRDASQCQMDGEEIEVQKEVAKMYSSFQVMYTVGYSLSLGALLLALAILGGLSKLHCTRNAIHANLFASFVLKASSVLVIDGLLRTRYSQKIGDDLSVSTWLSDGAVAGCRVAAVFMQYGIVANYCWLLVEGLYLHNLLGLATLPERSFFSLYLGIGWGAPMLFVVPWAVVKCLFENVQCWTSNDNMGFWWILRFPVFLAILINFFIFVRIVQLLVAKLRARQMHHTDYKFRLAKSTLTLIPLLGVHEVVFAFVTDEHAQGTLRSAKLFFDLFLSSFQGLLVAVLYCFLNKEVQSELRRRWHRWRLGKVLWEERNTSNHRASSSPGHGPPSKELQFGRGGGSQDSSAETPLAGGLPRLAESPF

B1: glucagon derivative of SEQ ID NO: 37 (peptide)
peptide: Y[Aib]QGTFTSDYSKYLDERRAKEFVQWLMNTC
modifications: lactam 16-20
- In vitro Activity (Relative Activity to SEQ ID NO: 1, %); cAMP assay, from EC50: 776%
